T1: PUF4 RNA-binding domain (Saccharomyces cerevisiae, UniProt P25339 537-888)
T1 sequence: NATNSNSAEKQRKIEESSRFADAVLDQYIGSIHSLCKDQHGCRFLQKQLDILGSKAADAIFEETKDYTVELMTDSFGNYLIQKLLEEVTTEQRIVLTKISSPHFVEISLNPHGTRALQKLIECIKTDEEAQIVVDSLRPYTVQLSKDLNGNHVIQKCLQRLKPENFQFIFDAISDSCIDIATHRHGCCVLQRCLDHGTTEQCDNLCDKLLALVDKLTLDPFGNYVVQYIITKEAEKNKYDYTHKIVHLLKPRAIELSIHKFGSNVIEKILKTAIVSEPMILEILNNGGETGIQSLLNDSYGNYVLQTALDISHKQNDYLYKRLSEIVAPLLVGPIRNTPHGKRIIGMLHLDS


target: T1, PUF4 RNA-binding domain; test: Mg; RNA-MaP; 20 mM Na-HEPES pH 7.4, 30 mM KOAc, 0.75 mM MgCl2, 0.1% Tween-20, 5% glycerol, 0.1 mg/mL BSA, 2 mM DTT; 25 C; 0.0125-409.6 nM protein; details: tags: N-His6-TEV cleaved; C-SNAP kept, Cy3B-labelled; label: tethered on chip by stalled RNA polymerase

Row | Binder | Kd
1 | ACAAACAAACACUUAUUAUAACAAAC (ssRNA) [Id_ii_S3_P5E.4_K5.3_C5.2_[C-2A]_[T-1A]_H5.3_A5.1_F5.1_T5.2] | > 2300 nM
2 | ACAAACCUACACUUAUUAAAACAAAC (ssRNA) [Id_ii_S3_P5E.4_K5.3_C5.2_H5.3_A5.1_F5.1_T5.2_[T11A]] | > 2300 nM
3 | ACAAACAAACACUUAUUAUCACAAAC (ssRNA) [Id_ii_S3_P5E.4_K5.3_C5.2_[C-2A]_[T-1A]_H5.3_A5.1_F5.1_T5.2_[A12C]] | > 2300 nM
4 | ACAAACAUACACUUAUUACGACAAAC (ssRNA) [Id_ii_S3_P5E.4_K5.3_C5.2_[C-2A]_H5.3_A5.1_F5.1_T5.2_[T11C]_[A12G]] | > 2300 nM
5 | ACAAACCCACACUUAUUACCACAAAC (ssRNA) [Id_ii_S3_P5E.4_K5.3_C5.2_[T-1C]_H5.3_A5.1_F5.1_T5.2_[T11C]_[A12C]] | > 2300 nM
6 | UCUCUUUGCUUUAUUAUCUCUU (ssRNA) [Ib_S1_P5E.1_K5.1_C5.1_H5.1_[T3C]_[A4T]_A5.1_F5.1_T5.1] | > 2300 nM
7 | ACAAACCGACACUUAUUACUACAAAC (ssRNA) [Id_ii_S3_P5E.4_K5.3_C5.2_[T-1G]_H5.3_A5.1_F5.1_T5.2_[T11C]_[A12T]] | > 2300 nM
8 | ACAAACCAACACUUAUUACUACAAAC (ssRNA) [Id_ii_S3_P5E.4_K5.3_C5.2_[T-1A]_H5.3_A5.1_F5.1_T5.2_[T11C]_[A12T]] | > 2300 nM
9 | ACAAACAUACACUUAUUAAUACAAAC (ssRNA) [Id_ii_S3_P5E.4_K5.3_C5.2_[C-2A]_H5.3_A5.1_F5.1_T5.2_[T11A]_[A12T]] | > 2300 nM
10 | ACAAACCGACACUUAUUACGACAAAC (ssRNA) [Id_ii_S3_P5E.4_K5.3_C5.2_[T-1G]_H5.3_A5.1_F5.1_T5.2_[T11C]_[A12G]] | > 2300 nM
11 | ACAAACCUACACUUAUUAUCACAAAC (ssRNA) [Id_ii_S3_P5E.4_K5.3_C5.2_H5.3_A5.1_F5.1_T5.2_[A12C]] | > 2300 nM
12 | ACAAACCCACACUUAUUAUGACAAAC (ssRNA) [Id_ii_S3_P5E.4_K5.3_C5.2_[T-1C]_H5.3_A5.1_F5.1_T5.2_[A12G]] | > 2300 nM
13 | ACAAACCUACACUUAUUAACACAAAC (ssRNA) [Id_ii_S3_P5E.4_K5.3_C5.2_H5.3_A5.1_F5.1_T5.2_[T11A]_[A12C]] | > 2300 nM
14 | ACAAACCGACACUUAUUACCACAAAC (ssRNA) [Id_ii_S3_P5E.4_K5.3_C5.2_[T-1G]_H5.3_A5.1_F5.1_T5.2_[T11C]_[A12C]] | > 2300 nM
15 | UCUCUUUAUUUUAUUAUCUCUU (ssRNA) [Ib_S1_P5E.1_K5.1_C5.1_H5.1_[G2A]_[A4T]_A5.1_F5.1_T5.1] | 1550 nM
16 | ACAAACCGACACUUAUUAUAACAAAC (ssRNA) [Id_ii_S3_P5E.4_K5.3_C5.2_[T-1G]_H5.3_A5.1_F5.1_T5.2] | > 2300 nM
17 | ACAAACAAACACUUAUUAAAACAAAC (ssRNA) [Id_ii_S3_P5E.4_K5.3_C5.2_[C-2A]_[T-1A]_H5.3_A5.1_F5.1_T5.2_[T11A]] | > 2300 nM
18 | ACAAACCCACACUUAUUAUAACAAAC (ssRNA) [Id_ii_S3_P5E.4_K5.3_C5.2_[T-1C]_H5.3_A5.1_F5.1_T5.2] | > 2300 nM
19 | UCUCUUUAUCUUAUUAUCUCUU (ssRNA) [Ib_S1_P5E.1_K5.1_C5.1_H5.1_[G2A]_[A4C]_A5.1_F5.1_T5.1] | > 2300 nM
20 | ACAAACAAACACUUAUUAUGACAAAC (ssRNA) [Id_ii_S3_P5E.4_K5.3_C5.2_[C-2A]_[T-1A]_H5.3_A5.1_F5.1_T5.2_[A12G]] | > 2300 nM
21 | UCUCUUUGUAUGAUUAUCUCUU (ssRNA) [Ia_S1_P5E.1_K5.1_C5.1_H5.1_A5.1_[T6G]_F5.1_T5.1] | 23 nM
22 | ACAAACCCACACUUAUUAAGACAAAC (ssRNA) [Id_ii_S3_P5E.4_K5.3_C5.2_[T-1C]_H5.3_A5.1_F5.1_T5.2_[T11A]_[A12G]] | > 2300 nM
23 | ACAAACCUACACUUAUUAGCACAAAC (ssRNA) [Id_ii_S3_P5E.4_K5.3_C5.2_H5.3_A5.1_F5.1_T5.2_[T11G]_[A12C]] | > 2300 nM
24 | ACAAACAUACACUUAUUAGGACAAAC (ssRNA) [Id_ii_S3_P5E.4_K5.3_C5.2_[C-2A]_H5.3_A5.1_F5.1_T5.2_[T11G]_[A12G]] | > 2300 nM
25 | Id_ii_S4_P3E.2_K3.1_C3.2_[C-2G]_[T-1G]_H3.1_A3.1_F3.1_T3.2_[T9A]_[A10G] (ssRNA) RNA: UUUGACAACUGAUCGUUCUUUCUGGUGUAUAUAAGUUCUUUCUCGAUCAGUUGUCUUU | 9.31 nM
26 | Id_ii_S4_P3E.2_K3.1_C3.2_[C-2T]_[T-1C]_H3.1_A3.1_F3.1_T3.2_[A10T] (ssRNA) RNA: UUUGACAACUGAUCGUUCUUUCUUCUGUAUAUAUUUUCUUUCUCGAUCAGUUGUCUUU | 1.29 nM

Row | Binder | Kd
27 | Id_ii_S4_P3E.2_K3.1_C3.2_[C-2G]_[T-1C]_H3.1_A3.1_F3.1_T3.2_[T9C] (ssRNA) RNA: UUUGACAACUGAUCGUUCUUUCUGCUGUAUAUACAUUCUUUCUCGAUCAGUUGUCUUU | 46.9 nM
28 | Id_ii_S4_P3E.2_K3.1_C3.2_[C-2G]_H3.1_A3.1_F3.1_T3.2_[T9C]_[A10C] (ssRNA) RNA: UUUGACAACUGAUCGUUCUUUCUGUUGUAUAUACCUUCUUUCUCGAUCAGUUGUCUUU | 21.8 nM
29 | Id_ii_S4_P3E.2_K3.1_C3.2_[C-2T]_[T-1C]_H3.1_A3.1_F3.1_T3.2_[T9C] (ssRNA) RNA: UUUGACAACUGAUCGUUCUUUCUUCUGUAUAUACAUUCUUUCUCGAUCAGUUGUCUUU | 9.13 nM
30 | Id_ii_S4_P3E.2_K3.1_C3.2_[C-2T]_[T-1C]_H3.1_A3.1_F3.1_T3.2_[T9A]_[A10C] (ssRNA) RNA: UUUGACAACUGAUCGUUCUUUCUUCUGUAUAUAACUUCUUUCUCGAUCAGUUGUCUUU | 2.96 nM
31 | Id_ii_S4_P3E.2_K3.1_C3.2_[C-2G]_[T-1G]_H3.1_A3.1_F3.1_T3.2_[T9A]_[A10T] (ssRNA) RNA: UUUGACAACUGAUCGUUCUUUCUGGUGUAUAUAAUUUCUUUCUCGAUCAGUUGUCUUU | 5.5 nM
32 | Id_ii_S4_P3E.2_K3.1_C3.2_[C-2T]_[T-1C]_H3.1_A3.1_F3.1_T3.2_[T9A]_[A10T] (ssRNA) RNA: UUUGACAACUGAUCGUUCUUUCUUCUGUAUAUAAUUUCUUUCUCGAUCAGUUGUCUUU | 1.51 nM
33 | Id_ii_S4_P3E.2_K3.1_C3.2_[C-2G]_[T-1G]_H3.1_A3.1_F3.1_T3.2_[A10T] (ssRNA) RNA: UUUGACAACUGAUCGUUCUUUCUGGUGUAUAUAUUUUCUUUCUCGAUCAGUUGUCUUU | 3.9 nM
34 | Id_ii_S4_P3E.2_K3.1_C3.2_[C-2T]_[T-1C]_H3.1_A3.1_F3.1_T3.2_[T9G]_[A10T] (ssRNA) RNA: UUUGACAACUGAUCGUUCUUUCUUCUGUAUAUAGUUUCUUUCUCGAUCAGUUGUCUUU | 3.63 nM
35 | Id_ii_S4_P3E.2_K3.1_C3.2_[C-2G]_H3.1_A3.1_F3.1_T3.2 (ssRNA) RNA: UUUGACAACUGAUCGUUCUUUCUGUUGUAUAUAUAUUCUUUCUCGAUCAGUUGUCUUU | 2.31 nM
36 | Id_ii_S4_P3E.2_K3.1_C3.2_[C-2T]_[T-1A]_H3.1_A3.1_F3.1_T3.2_[T9G]_[A10C] (ssRNA) RNA: UUUGACAACUGAUCGUUCUUUCUUAUGUAUAUAGCUUCUUUCUCGAUCAGUUGUCUUU | 6.05 nM
37 | Id_ii_S4_P3E.2_K3.1_C3.2_[C-2G]_[T-1C]_H3.1_A3.1_F3.1_T3.2_[T9C]_[A10C] (ssRNA) RNA: UUUGACAACUGAUCGUUCUUUCUGCUGUAUAUACCUUCUUUCUCGAUCAGUUGUCUUU | 10.5 nM
38 | Id_ii_S4_P3E.2_K3.1_C3.2_[C-2T]_[T-1G]_H3.1_A3.1_F3.1_T3.2_[T9A]_[A10T] (ssRNA) RNA: UUUGACAACUGAUCGUUCUUUCUUGUGUAUAUAAUUUCUUUCUCGAUCAGUUGUCUUU | 1.68 nM
39 | Id_ii_S4_P3E.2_K3.1_C3.2_[C-2G]_H3.1_A3.1_F3.1_T3.2_[T9A]_[A10T] (ssRNA) RNA: UUUGACAACUGAUCGUUCUUUCUGUUGUAUAUAAUUUCUUUCUCGAUCAGUUGUCUUU | 3.41 nM
40 | Id_ii_S4_P3E.2_K3.1_C3.2_[C-2T]_[T-1C]_H3.1_A3.1_F3.1_T3.2_[T9C]_[A10T] (ssRNA) RNA: UUUGACAACUGAUCGUUCUUUCUUCUGUAUAUACUUUCUUUCUCGAUCAGUUGUCUUU | 2.78 nM
41 | ACAAACACACACUUAUUAUCACAAAC (ssRNA) [Id_ii_S3_P5E.4_K5.3_C5.2_[C-2A]_[T-1C]_H5.3_A5.1_F5.1_T5.2_[A12C]] | > 2300 nM
42 | UCUCUUUAUGUUAUUAUCUCUU (ssRNA) [Ib_S1_P5E.1_K5.1_C5.1_H5.1_[G2A]_[A4G]_A5.1_F5.1_T5.1] | 2070 nM
43 | ACAAACCCACACUUAUUAUCACAAAC (ssRNA) [Id_ii_S3_P5E.4_K5.3_C5.2_[T-1C]_H5.3_A5.1_F5.1_T5.2_[A12C]] | > 2300 nM
44 | ACAAACCUACACUUAUUAUGACAAAC (ssRNA) [Id_ii_S3_P5E.4_K5.3_C5.2_H5.3_A5.1_F5.1_T5.2_[A12G]] | > 2300 nM
45 | UCUCUUUGCCUUAUUAUCUCUU (ssRNA) [Ib_S1_P5E.1_K5.1_C5.1_H5.1_[T3C]_[A4C]_A5.1_F5.1_T5.1] | > 2300 nM
46 | ACAAACAAACACUUAUUACAACAAAC (ssRNA) [Id_ii_S3_P5E.4_K5.3_C5.2_[C-2A]_[T-1A]_H5.3_A5.1_F5.1_T5.2_[T11C]] | > 2300 nM
47 | ACAAACACACACUUAUUAACACAAAC (ssRNA) [Id_ii_S3_P5E.4_K5.3_C5.2_[C-2A]_[T-1C]_H5.3_A5.1_F5.1_T5.2_[T11A]_[A12C]] | > 2300 nM
48 | ACAAACAAACACUUAUUAGGACAAAC (ssRNA) [Id_ii_S3_P5E.4_K5.3_C5.2_[C-2A]_[T-1A]_H5.3_A5.1_F5.1_T5.2_[T11G]_[A12G]] | > 2300 nM
49 | ACAAACAAACACUUAUUAAGACAAAC (ssRNA) [Id_ii_S3_P5E.4_K5.3_C5.2_[C-2A]_[T-1A]_H5.3_A5.1_F5.1_T5.2_[T11A]_[A12G]] | > 2300 nM
50 | ACAAACCUACACUUAUUAUUACAAAC (ssRNA) [Id_ii_S3_P5E.4_K5.3_C5.2_H5.3_A5.1_F5.1_T5.2_[A12T]] | > 2300 nM
51 | ACAAACAAACACUUAUUACCACAAAC (ssRNA) [Id_ii_S3_P5E.4_K5.3_C5.2_[C-2A]_[T-1A]_H5.3_A5.1_F5.1_T5.2_[T11C]_[A12C]] | > 2300 nM
52 | ACAAACCUACACUUAUUACUACAAAC (ssRNA) [Id_ii_S3_P5E.4_K5.3_C5.2_H5.3_A5.1_F5.1_T5.2_[T11C]_[A12T]] | > 2300 nM

Source: PMC9352680, “A comprehensive thermodynamic model for RNA binding by the Saccharomyces cerevisiae Pumilio protein PUF4”
